Laboratory results taken from US20180134765A1 (AVIDBIOTICS, published 2018).
Positions count from the first letter of the chain named.

Experiments:
[1] = target: T1, biotinylated human NKG2D (Example 3) (human, UniProt P26718 78-216, limits assumed, biotinylated (site not stated)); experiment: biolayer interferometry (Octet), Kd = kOFF/kON
T1 construct: also called recombinant biotinylated NKG2D; surface coated biotinylated human NKG2D
T1 sequence (looked up): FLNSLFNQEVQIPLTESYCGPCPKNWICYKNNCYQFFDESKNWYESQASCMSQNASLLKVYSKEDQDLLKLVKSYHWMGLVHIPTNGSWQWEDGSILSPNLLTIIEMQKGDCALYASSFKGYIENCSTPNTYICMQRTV

[2] = target: T1, biotinylated human NKG2D (Example 3); experiment: biolayer interferometry (Octet), biotinylated human NKG2D on the surface, 100 nM analyte
NKG2D on NKL cells = target: T2, NKG2D on NKL cells (human, UniProt P26718 1-216); experiment: cell-based or functional assay
T2 sequence (looked up): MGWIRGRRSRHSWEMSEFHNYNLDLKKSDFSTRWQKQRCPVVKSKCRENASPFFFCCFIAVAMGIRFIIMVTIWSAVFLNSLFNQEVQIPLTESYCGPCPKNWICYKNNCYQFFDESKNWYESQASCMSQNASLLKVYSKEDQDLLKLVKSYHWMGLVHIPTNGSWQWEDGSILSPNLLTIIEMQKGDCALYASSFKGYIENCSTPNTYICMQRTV

murine NKG2D-Fc = target: T3, murine NKG2D-Fc (mouse, UniProt O54709 94-232, limits assumed); experiment: competition ELISA: variant titrated against mouse NKG2D-Fc binding to plate-coated MICA (competitor), detected with anti-Fc-HRP
T3 construct: also called mouse NKG2D-Fc; not shown: Fc part; not described
T3 sequence (looked up): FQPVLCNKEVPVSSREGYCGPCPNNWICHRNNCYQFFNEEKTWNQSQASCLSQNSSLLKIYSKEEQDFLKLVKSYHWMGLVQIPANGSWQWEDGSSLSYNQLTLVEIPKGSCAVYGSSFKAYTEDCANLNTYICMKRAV

human NKG2D-Fc = target: T4, human NKG2D-Fc (human, UniProt P26718 78-216, limits assumed); experiment: ELISA: protein captured on FGFR3 detected with NKG2D-Fc
T4 construct: also called natural NKG2D-Fc; not shown: Fc part
T4 sequence (looked up): T1 sequence (looked up)

FGFR3 (plate-coated) = target: T5, FGFR3 (plate-coated) (UniProt P22607 23-375); experiment: ELISA: FGFR3 coated at 2 ug/ml, protein titrated, bound protein detected with NKG2D-Fc and anti-Fc-HRP
T5 construct: also called Fibroblast Growth Factor Receptor 3
T5 sequence (looked up): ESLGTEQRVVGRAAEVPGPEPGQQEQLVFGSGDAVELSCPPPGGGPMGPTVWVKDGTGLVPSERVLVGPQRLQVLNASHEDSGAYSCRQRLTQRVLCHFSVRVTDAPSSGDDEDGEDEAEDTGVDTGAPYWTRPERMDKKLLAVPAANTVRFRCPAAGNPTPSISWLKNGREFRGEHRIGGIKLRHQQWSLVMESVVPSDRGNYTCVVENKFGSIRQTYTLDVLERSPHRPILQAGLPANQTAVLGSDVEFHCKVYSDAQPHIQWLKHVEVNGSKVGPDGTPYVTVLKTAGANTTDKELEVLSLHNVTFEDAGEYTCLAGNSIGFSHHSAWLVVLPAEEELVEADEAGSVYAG

Y152A NKG2D-Fc = target: T6, Y152A NKG2D-Fc (human, UniProt P26718 78-216); experiment: phage ELISA: phage clone titrated against Y152A NKG2D
T6 construct: Biotinylated for the phage selections; also called non-natural Y152A NKG2D; not shown: Fc part; not described
T6 sequence (looked up): T1 sequence (looked up) with Y75A

His-avitag-natural NKG2D = target: T7, His-avitag-natural NKG2D (human, biotin on the avitag sequence (BirA)); experiment: biolayer interferometry (Octet), biotinylated natural NKG2D ectodomain on the surface, 100 nM fusion protein; run B
T7 construct: also called natural NKG2D ectodomain; wild type NKG2D
T7 chain: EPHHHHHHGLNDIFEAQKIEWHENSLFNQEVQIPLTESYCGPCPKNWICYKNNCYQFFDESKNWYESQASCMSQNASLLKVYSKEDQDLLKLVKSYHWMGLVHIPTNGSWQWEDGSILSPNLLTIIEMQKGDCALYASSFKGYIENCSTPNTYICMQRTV

B1: WED-MICA (ligand)
chain: EPHSLRYNLTVLSWDGSVQSGFLTEVHLDGQPFLRCDRQKCRAKPQGQWAEDVLGNKTWDRETRDLTGWGKDLRMTLAHIKDQKEGLHSLQEIRVCEIHEDNSTRSSQHFYYDGELFLSQNLETKEWTMPQSSRAQTLAMNVRNFLKEDAMETDTHYHAMHADCLQELRRYLKSGVVLRRTVPPMVQVTRSEASGGSGDRVTITCRASQDVSTAVAWYQQKPGKAPKLLIYSASFLYSGVPSRFSGSGSGTDFTLTISSLQPEDFATYYCQQSYTTPPTFGQGTKVEIKGGSSRSSSSGGGGSGGGGEVQLVESGGGLVQPGGSLRLSCAASGFTFTSTGISWVRQAPGKGLEWVGRIYPTNGSTNYADSVKGRFTISADTSKNTAYLQMNSLRAEDTAVYYCARTYGIYDLYVDYTEYVMDYWGQGTLVTVSSGGSSRSSSSGGGGSGGGGDIQMTQSPSSLSASGGSGQITVTCRASGFYPWNITLSWRQDGVSLSHDTQQWGDVLPDGQGTYQTWVATRISQGEEQRFTCYMEHSGQHSTHPVPSGKGSHHHHHH
notes: also called WED-α1-α2 domains; WED soluble MICA protein
apparent Kd (pooled screen) [1]: 5.9 nM | apparent koff (pooled screen) [2]: 0.0017 s⁻¹ | apparent kon (pooled screen) [2]: 290000 M⁻¹ s⁻¹

B2: α1-α2 variant 16 (ligand)
chain: B1 chain with K125L, H161R
NK cell-mediated lysis of FGFR3-expressing P815 target cells (calcein release, NKL cells) (NKG2D on NKL cells): ~15 fold more killing than WT at 0.78 nM

B3: α1-α2 variant 17 (ligand)
chain: B1 chain with G68L, K125L, H161R
NK cell-mediated lysis of FGFR3-expressing P815 target cells (calcein release, NKL cells) (NKG2D on NKL cells): ~15 fold more killing than WT at 0.78 nM | IC50 (read off the curve) (murine NKG2D-Fc): ~1 nM

B4: α1-α2 variant 18 (ligand)
chain: B1 chain with S20P, G68L, K125L, H161R
NK cell-mediated lysis of FGFR3-expressing P815 target cells (calcein release, NKL cells) (NKG2D on NKL cells): ~15 fold more killing than WT at 0.78 nM | IC50 (read off the curve) (murine NKG2D-Fc): ~1 nM

B5: MICA-α3-iFv.1 (designed binder)
chain: EPHSLRYNLTVLSWDGSVQSGFLTEVHLDGQPFLRCDRQKCRAKPQGQWAEDVLGNKTWDRETRDLTGNGKDLRMTLAHIKDQKEGLHSLQEIRVCEIHEDNSTRSSQHFYYDGELFLSQNLETKEWTMPQSSRAQTLAMNVRNFLKEDAMKTKTHYHAMHADCLQELRRYLKSGVVLRRTVPPMVQVTRSEASGDRVTITCRASQDVSTAVAWYQQKPGKAPKLLIYSASFLYSGVPSRFSGSGSGTDFTLTISSLQPEDFATYYCQQSYTTPPTFGQGTKVEIKGGSSRSSSSGGGGSGGGGEVQLVESGGGLVQPGGSLRLSCAASGFTFTSTGISWVRQAPGKGLEWVGRIYPTNGSTNYADSVKGRFTISADTSKNTAYLQMNSLRAEDTAVYYCARTYGIYDLYVDYTEYVMDYWGQGTLVTVSSGGSSRSSSSGGGGSGGGGDIQMTQSPSSLSASGQITVTCRASGFYPWNITLSWRQDGVSLSHDTQQWGDVLPDGQGTYQTWVATRISQGEEQRFTCYMEHSGQHSTHPVPSGKGSHHHHHH
notes: His-tagged, monomeric, made in insect cells; also called sMICA-α3-iFv.1
binding result (human NKG2D-Fc): binds | EC50 (read off the curve) (FGFR3 (plate-coated)): ~1 nM

B6: MICA25.17 (ligand)
chain: EPHSLRYNLTVLSWDGSVQSGFLTEVHLDGQPFLRCDRQKCRAKPQGQWAEDVLGNKTWDRETRDLTGWGTTLLMTLAHIKDQKEGLHSLQEIRVCEIHEDNSTRSSQHFYYDGELFLSQNLETLEWTMPQSSRAQTLAMNVRNFLKEDAMETDIGYRLMRADCLSELRRYLKSGVVLRRTV
notes: Tested as phage clone (M13 pIII fusion)
EC50 (read off the curve) (Y152A NKG2D-Fc): ~0.005 phage OD

B7: MICA25.18 (ligand)
chain: B6 chain with T72F, L74R, I155R, G156S, Y157G, R158L
notes: as for B6
EC50 (read off the curve) (Y152A NKG2D-Fc): ~0.01 phage OD

B8: MICwed-Fv (designed binder)
chain: B1 chain
notes: His-tagged α1-α2-α3-Fv fusion; also called MICwed-Fv run A; MICwed-Fv run B
Kd (His-avitag-natural NKG2D): 15.5 nM | koff (His-avitag-natural NKG2D): 0.00312 s⁻¹ | kon (His-avitag-natural NKG2D): 201000 M⁻¹ s⁻¹

B9: ULBP1-α3-iFv.2 (designed binder)
chain: EPHCLCYDFIITPKSRPEPQWCEVQGLVDERPFLHYDCVNHKAKAFASLGKKVNVTKTWEEQTETLRDVVDFLKGQLLDIQVENLIPIEPLTLQARMSCEHEAHGHGRGSWQFLFNGQKFLLFDSNNRKWTALHPGAKKMTEKWEKNRDVTMFFQKISLGDCKMWLEEFLMYWEQMLDPTKPPMVQVTRSEASGGSGDRVTITCRASQDVSTAVAWYQQKPGKAPKLLIYSASFLYSGVPSRFSGSGSGTDFTLTISSLQPEDFATYYCQQSYTTPPTFGQGTKVEIKGGSSRSSSSGGGGSGGGGEVQLVESGGGLVQPGGSLRLSCAASGFTFTSTGISWVRQAPGKGLEWVGRIYPTNGSTNYADSVKGRFTISADTSKNTAYLQMNSLRAEDTAVYYCARTYGIYDLYVDYTEYVMDYWGQGTLVTVSSGGSSRSSSSGGGGSGGGGDIQMTQSPSSLSASGGSGQITVTCRASGFYPWNITLSWRQDGVSLSHDTQQWGDVLPDGQGTYQTWVATRISQGEEQRFTCYMEHSGQHSTHPVPSGKGSHHHHHH
notes: His-tagged, monomeric, insect cells; also called NKG2DL-α3-iFv.2 (ULBP1)
binding result (human NKG2D-Fc): binds

B10: ULBP3-α3-iFv.2 (designed binder)
chain: EPHSLWYNFTIIHLPRHGQQWCEVQSQVDQKNFLSYDCGSDKVLSMGHLEEQLYATDAWGKQLEMLREVGQRLRLELADTELEDFTPSGPLTLQVRMSCECEADGYIRGSWQFSFDGRKFLLFDSNNRKWTVVHAGARRMKEKWEKDSGLTTFFKMVSMRDCKSWLRDFLMHRKKRLEPTAPPMVQVTRSEASGGSGDRVTITCRASQDVSTAVAWYQQKPGKAPKLLIYSASFLYSGVPSRFSGSGSGTDFTLTISSLQPEDFATYYCQQSYTTPPTFGQGTKVEIKGGSSRSSSSGGGGSGGGGEVQLVESGGGLVQPGGSLRLSCAASGFTFTSTGISWVRQAPGKGLEWVGRIYPTNGSTNYADSVKGRFTISADTSKNTAYLQMNSLRAEDTAVYYCARTYGIYDLYVDYTEYVMDYWGQGTLVTVSSGGSSRSSSSGGGGSGGGGDIQMTQSPSSLSASGGSGQITVTCRASGFYPWNITLSWRQDGVSLSHDTQQWGDVLPDGQGTYQTWVATRISQGEEQRFTCYMEHSGQHSTHPVPSGKGSHHHHHH
notes: His-tagged, monomeric, insect cells; also called NKG2DL-α3-iFv.2 (ULBP3)
binding result (human NKG2D-Fc): binds

B11: ULBP4-α3-iFv.2 (designed binder)
chain: EPHSLCFNFTIKSLSRPGQPWCEAQVFLNKNLFLQYNSDNNMVKPLGLLGKKVYATSTWGELTQTLGEVGRDLRMLLCDIKPQIKTSDPSTLQVEMFCQREAERCTGASWQFATNGEKSLLFDAMNMTWTVINHEASKIKETWKKDRGLEKYFRKLSKGDCDHWLREFLGHWEAMPEPTVSPPMVQVTRSEASGGSGDRVTITCRASQDVSTAVAWYQQKPGKAPKLLIYSASFLYSGVPSRFSGSGSGTDFTLTISSLQPEDFATYYCQQSYTTPPTFGQGTKVEIKGGSSRSSSSGGGGSGGGGEVQLVESGGGLVQPGGSLRLSCAASGFTFTSTGISWVRQAPGKGLEWVGRIYPTNGSTNYADSVKGRFTISADTSKNTAYLQMNSLRAEDTAVYYCARTYGIYDLYVDYTEYVMDYWGQGTLVTVSSGGSSRSSSSGGGGSGGGGDIQMTQSPSSLSASGGSGQITVTCRASGFYPWNITLSWRQDGVSLSHDTQQWGDVLPDGQGTYQTWVATRISQGEEQRFTCYMEHSGQHSTHPVPSGKGSHHHHHH
notes: His-tagged, monomeric, insect cells; also called NKG2DL-α3-iFv.2 (ULBP4)
binding result (human NKG2D-Fc): binds
